Experimental data reported in paper PMC9482650, “Quantitative fragmentomics allow affinity mapping of interactomes” (Nature Communications, 2022).

B1: CCL24, O00175 (peptide)
chain: QRYPGNQTTC
B2: TYRP1, P17643 (peptide)
chain: KLQNPNQSVV
B3: CLDN7, O95471 (peptide)
chain: PKSNSSKEYV
B4: KIT, P10721 (peptide)
chain: SQPLLVHDDV

Columns and labels:
Experiment in all cases: holdup assay
Design in all cases: key: below the threshold = too weak to quantify, mostly under pKd 3.1 to 4
Conditions in all cases: plain residues with an end cap or a label only (N-terminal biotin on a linker: ado-ado)
[1] = target: DLG1_3, Q12959
[2] = target: DLG2_3, Q15700
[3] = target: T1, DLG3_1, Q92796
T1 sequence (Q92796 125-227, limits assumed, looked up): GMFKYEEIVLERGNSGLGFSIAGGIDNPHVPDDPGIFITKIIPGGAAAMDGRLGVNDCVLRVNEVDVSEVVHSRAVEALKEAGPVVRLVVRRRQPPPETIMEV

[4] = target: T2, DVL3, Q92997
T2 sequence (Q92997 244-331, limits assumed, looked up): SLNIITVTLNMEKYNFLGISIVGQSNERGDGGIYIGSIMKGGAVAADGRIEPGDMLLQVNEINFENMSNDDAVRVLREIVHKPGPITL

[5] = target: GRID2IP_2, A4D2P6
[6] = target: T3, GRIP1_3, Q9Y3R0
T3 sequence (Q9Y3R0 247-346, limits assumed, looked up): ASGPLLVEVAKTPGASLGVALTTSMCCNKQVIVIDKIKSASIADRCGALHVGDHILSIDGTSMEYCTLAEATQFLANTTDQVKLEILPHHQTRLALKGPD

[7] = target: T4, GRIP1_7, Q9Y3R0
T4 sequence (Q9Y3R0 999-1096, limits assumed, looked up): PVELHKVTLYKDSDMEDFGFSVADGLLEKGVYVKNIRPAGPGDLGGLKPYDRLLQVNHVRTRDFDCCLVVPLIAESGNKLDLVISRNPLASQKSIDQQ

[8] = target: GRIP2_7, Q9C0E4
[9] = target: HTRA1, Q92743
[10] = target: Inadl_5, Q8NI35
[11] = target: LIMK2, P53671
[12] = target: T5, LRRC7, Q96NW7
T5 sequence (Q96NW7 1440-1537, limits assumed, looked up): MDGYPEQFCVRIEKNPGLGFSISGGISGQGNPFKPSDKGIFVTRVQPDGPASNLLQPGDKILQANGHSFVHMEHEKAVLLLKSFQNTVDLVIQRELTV

[13] = target: MAGI2_4, Q86UL8
[14] = target: MAST1, Q9Y2H9
[15] = target: T6, MPP7, Q5T2T1
T6 sequence (Q5T2T1 134-230, limits assumed, looked up): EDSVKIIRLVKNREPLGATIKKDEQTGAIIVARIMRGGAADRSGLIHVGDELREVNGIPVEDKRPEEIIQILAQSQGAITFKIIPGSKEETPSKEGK

[16] = target: T7, NHERF3_3, Q5T2W1
T7 sequence (Q5T2W1 238-333, limits assumed, looked up): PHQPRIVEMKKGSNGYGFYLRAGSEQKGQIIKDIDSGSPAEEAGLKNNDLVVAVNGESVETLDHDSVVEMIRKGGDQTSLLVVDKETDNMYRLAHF

[17] = target: T8, NHERF3_4, Q5T2W1
T8 sequence (Q5T2W1 373-468, limits assumed, looked up): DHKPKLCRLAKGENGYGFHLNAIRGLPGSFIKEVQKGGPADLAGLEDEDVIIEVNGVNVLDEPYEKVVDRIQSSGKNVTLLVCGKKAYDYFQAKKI

[18] = target: T9, PCLO, Q9Y6V0
T9 sequence (Q9Y6V0 4491-4600, limits assumed, looked up): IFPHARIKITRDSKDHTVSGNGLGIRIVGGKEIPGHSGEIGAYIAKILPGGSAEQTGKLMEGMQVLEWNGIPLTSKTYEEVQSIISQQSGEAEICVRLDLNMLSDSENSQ

[19] = target: PDZRN4_1, Q6ZMN7
[20] = target: T10, RHPN1, Q8TCX5
T10 sequence (Q8TCX5 508-602, limits assumed, looked up): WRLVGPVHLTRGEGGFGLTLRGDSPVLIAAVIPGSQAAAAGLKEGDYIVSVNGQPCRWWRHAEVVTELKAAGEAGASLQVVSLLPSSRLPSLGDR

[21] = target: T11, SNTA1, Q13424
T11 sequence (Q13424 82-180, limits assumed, looked up): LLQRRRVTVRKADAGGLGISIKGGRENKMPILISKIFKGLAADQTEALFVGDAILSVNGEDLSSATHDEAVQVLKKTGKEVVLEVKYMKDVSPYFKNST

[22] = target: T12, SYNJ2BP, P57105
T12 sequence (P57105 8-110, limits assumed, looked up): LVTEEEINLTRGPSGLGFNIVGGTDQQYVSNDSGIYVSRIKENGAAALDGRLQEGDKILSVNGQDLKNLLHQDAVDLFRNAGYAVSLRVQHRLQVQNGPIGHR

[23] = target: T13, TX1BP3, O14907
T13 sequence (O14907 10-122, limits assumed, looked up): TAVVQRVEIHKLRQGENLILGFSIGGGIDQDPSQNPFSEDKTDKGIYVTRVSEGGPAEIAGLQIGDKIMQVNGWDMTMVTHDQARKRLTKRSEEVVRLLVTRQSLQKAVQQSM

Chain of GRIP2_7, Q9C0E4 (Q9C0E4 934-1023): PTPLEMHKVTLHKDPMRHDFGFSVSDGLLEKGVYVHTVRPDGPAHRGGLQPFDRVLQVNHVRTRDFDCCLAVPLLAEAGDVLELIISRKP
Chain of MAGI2_4, Q86UL8 (Q86UL8 772-865): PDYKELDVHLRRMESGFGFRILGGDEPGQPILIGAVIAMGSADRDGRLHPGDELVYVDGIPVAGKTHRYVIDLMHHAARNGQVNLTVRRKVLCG
Chain of Inadl_5, Q8NI35 (Q8NI35 673-780): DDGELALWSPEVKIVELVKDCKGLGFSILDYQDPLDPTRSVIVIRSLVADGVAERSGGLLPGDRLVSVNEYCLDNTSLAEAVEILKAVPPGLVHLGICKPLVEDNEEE
Chain of GRID2IP_2, A4D2P6 (A4D2P6 272-370): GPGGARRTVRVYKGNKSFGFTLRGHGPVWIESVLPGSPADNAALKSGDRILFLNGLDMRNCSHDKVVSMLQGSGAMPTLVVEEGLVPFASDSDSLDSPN
Chain of DLG1_3, Q12959 (Q12959 457-571): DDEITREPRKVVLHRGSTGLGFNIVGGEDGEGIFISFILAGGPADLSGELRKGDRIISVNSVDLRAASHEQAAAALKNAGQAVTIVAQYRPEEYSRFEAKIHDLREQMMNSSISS
Chain of HTRA1, Q92743 (Q92743 360-477): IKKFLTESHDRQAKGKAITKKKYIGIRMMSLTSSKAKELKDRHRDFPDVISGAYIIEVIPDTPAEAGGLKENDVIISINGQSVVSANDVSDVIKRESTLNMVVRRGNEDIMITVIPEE
Chain of PDZRN4_1, Q6ZMN7 (Q6ZMN7 213-318): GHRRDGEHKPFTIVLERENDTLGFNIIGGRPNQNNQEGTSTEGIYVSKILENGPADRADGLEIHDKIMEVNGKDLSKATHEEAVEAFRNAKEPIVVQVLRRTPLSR
Chain of MAST1, Q9Y2H9 (Q9Y2H9 962-1065): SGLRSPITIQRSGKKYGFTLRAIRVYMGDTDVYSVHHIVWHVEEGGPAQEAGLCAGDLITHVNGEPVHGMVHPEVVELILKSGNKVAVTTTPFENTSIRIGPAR
Chain of LIMK2, P53671 (P53671 143-248): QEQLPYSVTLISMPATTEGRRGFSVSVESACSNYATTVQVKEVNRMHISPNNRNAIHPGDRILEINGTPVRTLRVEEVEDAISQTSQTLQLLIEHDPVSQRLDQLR

Binder | pKd [1] | pKd [2] | pKd [3] | pKd [4] | pKd [5] | pKd [6] | pKd [7] | pKd [8] | pKd [9] | pKd [10] | pKd [11] | pKd [12] | pKd [13] | pKd [14] | pKd [15] | pKd [16] | pKd [17] | pKd [18] | pKd [19] | pKd [20] | also measured
B1 | 3.76 | 3.87 | below the threshold | below the threshold | 4.08 | below the threshold | below the threshold | below the threshold | 3.66 | below the threshold | below the threshold | below the threshold | below the threshold | 4.14 | below the threshold | below the threshold | below the threshold | below the threshold | below the threshold | 4.2 | pKd [21]: below the threshold; pKd [22]: below the threshold; pKd [23]: below the threshold
B2 | 3.56 | below the threshold | below the threshold | below the threshold | 3.63 | below the threshold | below the threshold | below the threshold | 4.11 | below the threshold | below the threshold | below the threshold | 3.63 | 4.37 | below the threshold | below the threshold | below the threshold | below the threshold | below the threshold | 3.77 | pKd [21]: 3.99; pKd [22]: 3.91; pKd [23]: below the threshold
B3 | below the threshold | below the threshold | below the threshold | below the threshold | below the threshold | below the threshold | below the threshold | below the threshold | 3.72 | below the threshold | below the threshold | below the threshold | below the threshold | 3.62 | below the threshold | below the threshold | below the threshold | below the threshold | below the threshold | below the threshold | pKd [21]: below the threshold; pKd [22]: below the threshold; pKd [23]: below the threshold
B4 | below the threshold | below the threshold | below the threshold | below the threshold | below the threshold | below the threshold | below the threshold | below the threshold | below the threshold | below the threshold | below the threshold | below the threshold | below the threshold | below the threshold | below the threshold | below the threshold | below the threshold | below the threshold | below the threshold | below the threshold | pKd [21]: below the threshold; pKd [22]: below the threshold; pKd [23]: below the threshold
